{"source": "patent US20050100970A1", "about": "(Affibody, published 2005)", "key": {"[1]": {"target": "T1, human serum albumin (human, UniProt P02768 25-609)", "T1 construct": "Amine-coupled to a CM5 chip, coupled to Sepharose, or loaded in solution onto the ABD columns; also called HSA", "assay": "BIAcore 2000, HSA immobilised on CM5 chip, 40-220 nM ABDwt"}, "[2]": {"target": "T1, human serum albumin", "assay": "Biacore 2000, HSA immobilised on a CM5 chip, analyte at 200 nM, 20 µl/min"}, "[3]": {"target": "T1, human serum albumin", "assay": "BIAcore 2000, HSA immobilised on CM5 chip, 200-600 nM ABDmut"}}, "data": [{"binder": "wild type Albumin Binding Protein (ABD) (other, Expressed in E. coli from pTrpABDT1T2; also called ABDwt; unmutated protein) MKAIFVLNAQHDEAVDANSLAEAKVLANRELDKYGVSDYYKNLINNAKTVEGVKALIDEILAALP", "values": [{"measurement": "Ka", "setting": "[1]", "value": "6.9e+07", "unit": "M⁻¹"}, {"measurement": "koff", "setting": "[1]", "value": 0.0013, "unit": "s⁻¹"}, {"measurement": "kon", "setting": "[1]", "value": 90000, "unit": "M⁻¹ s⁻¹"}]}, {"binder": "ABDmut22-25-26 (designed binder, also called 22-25-26 A; triple mutant of ABDmut) MKAIFVLNAQHDEAVDANSLAAAKAAALRELDKYGVSDYYKDLIDKAKTVEGVKALIDEILAALP", "values": [{"measurement": "binding result", "setting": "[2]", "value": "binds"}]}, {"binder": "ABDmut54-57-58 (designed binder, also called 54-57-58 A; ABDmutS4-57-58) MKAIFVLNAQHDEAVDANSLAEAKVLALRELDKYGVSDYYKDLIDKAKTVEGVAALAAEILAALP", "values": [{"measurement": "binding result", "setting": "[2]", "value": "binds"}]}, {"binder": "ABDmut (Asn28Leu, Asn42Asp, Asn45Asp, Asn46Lys variant of ABD) (designed binder, Expressed in E. coli from pTrpABDmutT1T2; also called ABDstab; mutated ABD) MKAIFVLNAQHDEAVDANSLAEAKVLALRELDKYGVSDYYKDLIDKAKTVEGVKALIDEILAALP", "values": [{"measurement": "Ka", "setting": "[3]", "value": "1.5e+07", "unit": "M⁻¹"}, {"measurement": "koff", "setting": "[3]", "value": 0.0012, "unit": "s⁻¹"}, {"measurement": "kon", "setting": "[3]", "value": 18000, "unit": "M⁻¹ s⁻¹"}]}]}
